# In article PMC9245472:
# Molecular target: T1, ArgR (Thermotoga neapolitana) (UniProt Q9KWZ0)
# T1 sequence: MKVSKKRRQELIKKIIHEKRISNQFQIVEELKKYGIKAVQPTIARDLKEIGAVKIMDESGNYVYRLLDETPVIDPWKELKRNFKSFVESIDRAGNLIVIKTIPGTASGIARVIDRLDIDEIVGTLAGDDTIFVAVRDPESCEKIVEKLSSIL
# Assay: EMSA
# Details: 10 mM Tris-HCl pH 7.5, 250 mM KCl, 5 mM MgCl2, 2.5 mM CaCl2, 2.5% glycerol, 0.5 mM DTT, 100-fold sonicated herring sperm DNA, 37 C 30 min; 2% agarose in TAE …
sequence,measurement,value
TGTTACTCTTGAGTTACCAAAACAAAAACAAATGAATTTTTCTTCCAGAGGTGTTATATTTATGCTGTATAATTGTATGTGTTTTCAATCTGAAAGATGGAGGTGTTCAACTTGAAGGTGTCGAAAAAAAGAAGACAGGAACTCATAA (double strand) [argRo (ArgRTn)],binding,binds
